# From publication PMC3568036
# Tests used:
# [1] = biological target: Flag-tagged EspM2 (EHEC O157:H7 Sakai)
# [2] = biological target: Flag-tagged EspM2 (EHEC O157:H7 Sakai); remark: listed apart in the source
substance,measurement,setting,value
GST-EspO1-2 W77A (natural protein),percent of HeLa cells with stress fibers when transfected with EspM2 and EspO1-2 W77A expression vectors (38% with the EspM2 vector only) (% of transfected cells),[1],20
GST-EspO1-2 W77H (natural protein),percent of HeLa cells with stress fibers when transfected with EspM2 and EspO1-2 W77H expression vectors (38% with the EspM2 vector only) (% of transfected cells),[1],20
glutathione-S-transferase (GST)-tagged EspO1-2 (natural protein),"percent of HeLa cells with stress fibers when transfected with both EspM2 and EspO1-2 expression vectors (38% with the EspM2 vector only), 72 h post-transfection (% of transfected cells)",[2],10
